Consider 25 sequences from the supplement of paper PMC9170038.

For the series, the system named is MS2 coat protein. Description: apparent KD of MS2 coat protein; designed switch direction (-1 OFF switch, 1 ON switch): -1; higher = weaker reporter binding. In outline:
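Normalised cluster fluorescence was curve-fitted, and each design's median over clusters is its apparent KD. Before this, SNAP-549-labelled MS2 coat protein was titrated from 0.7 or 1.5 nM, doubling to 3 µM, over RNA switches transcribed on Illumina chips by stalled E. coli RNA polymerase. Titrations had no input, 200 uM small-molecule ligand, or an oligonucleotide input, and steps lasted 0.8–1.5 h (lowest) to 10–20 min (highest).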

The mark [1] stands for this setting: Eterna round: R95, input ligand: FMN 200 uM.
Setting [2] is: Eterna round: R95, input ligand: microRNA oligo, concentration not stated.
Where [3] appears, read: Eterna round: R95, input ligand: none.
[4] abbreviates: input ligand: microRNA oligo, concentration not stated.

“AAGAAGAAACAAGCUUUUUGCACGUCAGGUAGUGACGCAACAUGAGGAUCACCCAUGUAUAGGGUGGGAAAGGAUAG [JR_SV3TOV2_Sub048] (puzzle: Sensor v3, turn-off variant 2)”: the “apparent KD of MS2 coat protein” value under setting [1] is 34 nM, the “apparent KD of MS2 coat protein” value under setting [2] stood at 30.9 nM and the “apparent KD of MS2 coat protein” value under setting [3] is 303 nM.

“AAGAAGCAAGGAUAUACAACGGGCCACAGAGCCGAAGGGCAACAUGAGGAUCACCCAUGUAGAAGGUGCGUAAC [Lecebeqube] (puzzle: Exclusion 2)”: the “apparent KD of MS2 coat protein” value is, setting by setting: under setting [1], 149 nM; under setting [2], 30.3 nM; under setting [3], 28.2 nM.

As for “AAGAAGUCAGGAUAUGCUAAAGAAAUAAAAAGAAAGAAAGAACAUGAGGAUCACCCAUGUAGAAGGGACAAGAA [Seheqenre Sankhptahi] (Eterna round: R96, puzzle: Exclusion 2)”, under setting [4], the “apparent KD of MS2 coat protein” value came to 31.8 nM.

Consider “AAGAAUCAAGGAUAUGCAUGAUACGACAUGAGGAUCACCCAUGUCCUCACGCGUAUCCUUGCAGAAGGUGAGUAUA [EX5 A.22] (Eterna round: R97, puzzle: Exclusion 5)”, for which the “apparent KD of MS2 coat protein” value reads like this: (input ligand: FMN 200 uM) 15 nM; (input ligand: none) 15.3 nM.

As for “AAGAUGCGGGUAGGAUAUGGAAAUUAAUAAAGACCAGAAGGACUGGUCACACAACAUGAGGAUCACCCAUGUGUGUGUUGUGAA [AK ExNG1-6] (Eterna round: R96, puzzle: Exclusion NG 1)”, the “apparent KD of MS2 coat protein” value under setting [4] was 9.06 nM.

As to “AAGCACGCGUAGGAUAUAAUCCAAACCUCGAGGUUAGAAGGACGCACAUGAGGAUCACCCAUGUUCCUAGCAUC [Eternabot (Original) Solution 19] (Eterna round: R97, puzzle: Exclusion 6)”, the “apparent KD of MS2 coat protein” value was determined as 20.7 nM (input ligand: FMN 200 uM) and 17.1 nM (input ligand: none).

As to “AAGCGACGAGGAUAUCGGUGGCUGAACAUGAGGAUCACCCAUGUGAACCGAUGGCAGUGUCGAGAAGGUGUUGAGU [Teceenla] (puzzle: Exclusion 5)”, the “apparent KD of MS2 coat protein” value under setting [2] turned out to be 12.3 nM.

Regarding “AAGGAGUGAGGAUAUGCGCGGGCACGCUCUAAAUAAGAAAGACAUGAGGAUCACCCAUGUAGAAGGCACAAUAA [Leedla] (puzzle: Exclusion 2)”, the “apparent KD of MS2 coat protein” value under setting [2] came out at 17.8 nM.

“AAGGAUAGAGGAUAUACAUAGAUACAGAUUCGUGUAGAACUACAUGAGGAUCACCCAUGUAGAAGGCUAUCCUA [Fiskers Ex 2 - 7] (puzzle: Exclusion 2)”: the “apparent KD of MS2 coat protein” value under setting [2] was determined as 15.2 nM.

Regarding “AAGGAUAGAGGAUAUACAUAGAUACAGGUUCAUGUAGAACUACAUGAGGAUCACCCAUGUAGAAGGCUAUCCUA [Fiskers Ex 2 - 8] (puzzle: Exclusion 2)”, the “apparent KD of MS2 coat protein” value runs as follows: under setting [1], 113 nM; under setting [2], 20.8 nM; under setting [3], 21.1 nM.

As for “AAGGGCUGAGGAUAUGCGCGGGCAAGAUCCUCAAUCCCAAAACAUGAGGAUCACCCAUGUAGAAGGCAGAAAUA [Atedonesle] (puzzle: Exclusion 2)”, under setting [2], the “apparent KD of MS2 coat protein” value is 28.3 nM.

With “AAGGGUGCUUUCAGAACGACAUGAGGAUCACCCAUGUAGACUGAGGAUAUCUACUUCUAAGGACGGGAGAAGGCAGUGUAAUGU [Ex NG3 #71] (Eterna round: R96, puzzle: Exclusion NG 3)”, the “apparent KD of MS2 coat protein” value (input ligand: FMN 200 uM) came out at 25.5 nM, the “apparent KD of MS2 coat protein” value under setting [4] turned out to be 17.8 nM and the “apparent KD of MS2 coat protein” value (input ligand: none) came out at 22.6 nM.

For “AAGGUACAUGAGGAUCACCCAUGUGAGGAUAUCGUUGUUGAGUCUAGAGAUACAAUGUUGAGAAGGUACGGGUA [Eternabot (L2) Solution 94] (Eterna round: R97, puzzle: Exclusion 1)”, the “apparent KD of MS2 coat protein” value amounted to 63.1 nM (input ligand: FMN 200 uM) and 61.2 nM (input ligand: none).

As to “AAGUCCUUGUGGACACAUGAGGAUCACCCAUGUGCGGUCAGCGAGGAUAUCGGUCUAUAAUGUGACGAGAAGGCGCGGACCGAU [Ex NG3 #61] (Eterna round: R96, puzzle: Exclusion NG 3)”, the “apparent KD of MS2 coat protein” value by setting is: (input ligand: FMN 200 uM) 26.2 nM; under setting [4], 15.3 nM; (input ligand: none) 21.3 nM.

On to “AAGUGCAAAGGAUAUACGUGACUUACUCCAAUUGCUACCCGACAUGAGGAUCACCCAUGUAGAAGGUUGCGCAC [Eternabot (Original) Solution 20] (Eterna round: R97, puzzle: Exclusion 2)”, for which the “apparent KD of MS2 coat protein” value is, setting by setting: (input ligand: FMN 200 uM) 34.3 nM; (input ligand: none) 16.6 nM.

Take “AAUAAACAUGAGGAUCACCCAUGUGAGGAUAUACAGAUUAUAAGAAAAAAAAAAAAAAGUAGAAGGCACAUAUA [Default title] (Eterna round: R96, puzzle: Exclusion 1)”: the “apparent KD of MS2 coat protein” value reads like this: (input ligand: FMN 200 uM) 39.6 nM; under setting [4], 29.9 nM; (input ligand: none) 37.6 nM.

Take “AAUAAAGUAGGAUAUACAUGAGGAUCACCCAUGUCCCACCCGUUACCUAUGACCAUAUGUAGAAGGACUAAUAA [Exy#3] (Eterna round: R97, puzzle: Exclusion 3)”: the “apparent KD of MS2 coat protein” value was 80 nM (input ligand: FMN 200 uM) and 59.1 nM (input ligand: none).

As to “AAUAACAAGCUGAUCCUUCACAUGAGGAUCACCCAUGUGCUCGUCUUGUAAAGUACUAUCACGAAAGUGAUAGUACA (Eterna round: R97, puzzle: Sensor, turn-off variant 1)”, the “apparent KD of MS2 coat protein” value runs as follows: (input ligand: FMN 200 uM) 127 nM; (input ligand: none) 125 nM.

On to “AAUAACAGAGGAUAUACUAUUUUAUGUAUUUAUUAUUUUAAACAUGAGGAUCACCCAUGUAGAAGGCUGAAUGA [JMF 54] (puzzle: Exclusion 2)”, for which the “apparent KD of MS2 coat protein” value reads like this: under setting [1], 20.6 nM; under setting [2], 21.6 nM; under setting [3], 21.5 nM.

On to “AAUAACAGAGGAUAUACUAUUUUAUGUGUUUGUUGUUUUGAACAUGAGGAUCACCCAUGUAGAAGGCUGAAUAA [JMF 26] (puzzle: Exclusion 2)”, for which the “apparent KD of MS2 coat protein” value under setting [2] was 22.1 nM.

Regarding “AAUAACAGAGGAUAUACUGUUUUAUGUGUUUGUUGUUUUAAACAUGAGGAUCACCCAUGUAGAAGGCUGAAUGA [JMF 60] (puzzle: Exclusion 2)”, the “apparent KD of MS2 coat protein” value under setting [2] came out at 21.8 nM.

Consider “AAUAAGCGAGGAUAUACACCCGGUAACCGGGAACGGGCGAGACAUGAGGAUCACCCAUGUAGAAGGCGCGUCAA [Ralaente] (Eterna round: R97, puzzle: Exclusion 2)”, for which the “apparent KD of MS2 coat protein” value is 182 nM (input ligand: FMN 200 uM) and 161 nM (input ligand: none).

For “AAUAAUAAACAAGCUUUUUACAUGAGGAUCACCCAUGUCCUCUGCUCGUCUUAUCUUGGGCUUUUUUUGGGUUCGGG [-16.4, -45 kcal, A 21%] (Eterna round: R97, puzzle: Sensor, turn-off variant 1)”, the “apparent KD of MS2 coat protein” value (input ligand: FMN 200 uM) was 813 nM and the “apparent KD of MS2 coat protein” value (input ligand: none) was determined as 891 nM.

With “AAUAAUGAGAAGGAUAUCACUAGCGAUAGCUAGUGAGAAGGUCUCACAUGAGGAUCACCCAUGUGUUCCAAUAA [Mod1 Ex6/6-A4 by Brourd] (Eterna round: R97, puzzle: Exclusion 6)”, the “apparent KD of MS2 coat protein” value (input ligand: FMN 200 uM) came out at 417 nM and the “apparent KD of MS2 coat protein” value (input ligand: none) turned out to be 221 nM.

On to “AAUAUGUGAGGAUAUCAGGUGUGCUAGCGUACUGGUACAUCUGAGAAGGCACAUGAGGAUCACCCAUGUAUCUU [Mat - Exclusion 4 - Mod of JL - D45] (puzzle: Exclusion 4)”, for which the “apparent KD of MS2 coat protein” value under setting [2] is 24.3 nM.
